We go through 14 molecules from US9707290.

Residue numbers refer to the chain shown, from its start. Read-outs that look alike come from different tables or passages of the source.

A word on the Kd: it is the concentration at which binding is half-saturated.

Experiment [1] has as its target 10E8 antibody. The experiment can be described thus: SPR, antibody on the sensor.
In experiment [2] the target is germline 10E8 (predicted germline precursor to 10E8). The experiment in a line: SPR. Background: SPR reads the build-up and loss of mass on a sensor chip optically.
For a further experiment, the target named is 4E10 antibody. The experiment in a line: SPR.
The target in experiment [3] is 10E8 antibody. The experiment in a line: SPR.
For experiment [4], the target named is germline 10E8 (predicted germline precursor to 10E8). The experiment in a line: SPR. This is another data set of the same source.
A further experiment has as its target germline 4E10. The experiment in a line: SPR.
For experiment [5], the target named is 10E8 antibody. The experiment can be described thus: SPR; reference 10E8_T117v2.
For experiment [6], the target named is 10E8 antibody. The experiment can be described thus: SPR. This is another data set of the same source.
In experiment [7] the target is 10E8 antibody. The experiment in a line: SPR; reference 10E8_T298v2.

B1: 10E8_T298v2 (designed binder)
chain: GSEVSQNDIIKALASPLINDGMVVSDFADHVITREQNAPTGLPVEPVGVAIPHTDSKYVRQNAISVGILAEPVNFEDAGGEPDPVPVRVVFMLALGNWFDITNVLWWIKAVIQDADFMQQLLRMNDDEIYQSIYTRISEAAGMAGIHFRRHYVRHLGLEHHHHHH
In the case of B1, the figures for the Kd (with 10E8 antibody [1]; in experiment [2]) were 0.172 nM and 105000 nM, respectively.

B2: 10E8_T93v2RT12-1 (designed binder)
chain: GKADEVREKARRRMEQAVEEFKRRLRQFEEKVKQKEPRDDEINRWIDIVKKKADEAKKRVEEVGDQAADEAAQLGNDPNVNWFDITNVLWDVKKLTEKAINDIDDALKKMKDWLESGLEHHHHHH
Regarding B2, the Kd in the experiment with 4E10 antibody is 0.018 nM; with 10E8 antibody [3] it was 0.04 nM; in experiment [4], 290000 to 720000 nM.

B3: 10E8_T93v2RT12-3 (designed binder)
chain: B2 chain with N81S, D84N, T86S, K93R
B3: the figures for the dissociation constant (Kd) in the experiment with 4E10 antibody and with 10E8 antibody [3] were 0.58 nM and 0.11 nM, respectively.

B4: 10E8_T93v2RT12-4 (designed binder)
chain: B2 chain with T86S, N87R
Take B4: the Kd with 10E8 antibody [3] turned out to be 2.7 nM.

B5: 10E8_T93v2RT12-5 (designed binder)
chain: B2 chain with N87Q
Regarding B5, in the experiment with 10E8 antibody [3], the dissociation constant (Kd) was 0.022 nM.

B6: 10E8_T117v2-1 (designed binder)
chain: NAMQGIHFRRHYVRHLPKEVSQNDIIKALASPLINDGMVVSDFADHVITREQNFPTGLPVEPVGVAIPHTDSKYVRQNAISVGILAEPVNFEDAGGEPDPVPVRVVFMLALGNWFDITNVLWWIKAVIQDEDFMQQLLVMNDDEIYQSIYTRISELEHHHHHH
Turning to B6, the Kd with 4E10 antibody is 0.168 nM; with 10E8 antibody [3], 0.082 nM; in [4] it was 6000 nM; in the experiment with germline 4E10, 0.187 nM; in the experiment with 10E8 antibody [1], 0.091 nM; in experiment [2], 30000 nM.

B7: 10E8_T117v2-2 (designed binder)
chain: B6 chain with D116S, N119K
As to B7, the Kd in the experiment with 4E10 antibody is 0.0538 nM; with 10E8 antibody [3], 1.3 nM.

B8: 10E8_T117v2-5 (designed binder)
chain: B6 chain with N119Q
In the experiment with 10E8 antibody [3], B8 came in with a Kd of 0.155 nM.

B9: 10E8_T117v2-4 (designed binder)
chain: B6 chain with T118S, N119R
As for B9, the Kd with 4E10 antibody is 3.9 nM; with 10E8 antibody [3], 0.59 nM; in experiment [4], 8000 nM; in the experiment with germline 4E10 it was 3.2 nM.

B10: 10E8_T117v2-3 (designed binder)
chain: B6 chain with N113S, D116N, T118S, K125R
In the case of B10, the Kd with 4E10 antibody is 0.526 nM; with 10E8 antibody [3] it was 0.925 nM; in [4], 8000 nM.

B11: 10E8_T117v2-1_RSF1 (designed binder)
chain: NAMAGIVFRKHYVRHLGKTVTQNEIIRALAAPLISDGMVVKDFADHVIKREEQNPTGLPVQPVGVAIPHTDSKYVYYNAISVGILQEPVAFEDAGGDGRPVPVRVVFMLALGNWFDITNVLWWIKAVIQDDEFMKRLLYMTDDKIYESIRKRIYDLE
As to B11, the Kd in the experiment with 4E10 antibody came out at 0.1 nM; in the experiment with 10E8 antibody [3], 0.05 nM; with germline 4E10, 0.1 nM.

B12: 4E10_T117 (designed binder)
chain: HHHHHHNAMQGIHFRRHYVRHLPKEVSQNDIIKALASPLINDGMVVSDFADHVITREQNFPTGLPVEPVGVAIPHTDSKYVRQNAISVGILAEPVNFEDAGGEPDPVPVRVVFMLALGNWFDITNVLWWIMDVIQDEDFMQQLLVMNDDEIYQSIYTRISE
In the experiment with 10E8 antibody [5], B12 gave a factor weaker than the corresponding 10E8 scaffold of 30 fold. This molecule showed a Kd with 10E8 antibody [6] of 3 nM.

B13: 10E8_T117v2-1_g28_g91012 (designed binder)
chain: NAMQGIHFRRHYVRHLPKNVSQNDIIKALASPLINDGMVVSDFADHVITRENNSPTGLPVEPVGVAIPHTDSKYVNQSAISVGILAEPVNFEDANGTPDPVPVRVVFMLALGNWFDITNVLWWIKAVIQDEDFMQQLLNMSDDEIYQSIYTRISE
modifications: added N-linked glycosylation sites (glycan-masked)
As for B13, the figures for the Kd with 4E10 antibody, with 10E8 antibody [3] and with germline 4E10 were 0.49 nM, 0.18 nM and 0.5 nM, respectively.

B14: 4E10_T298 (designed binder)
chain: GHHHHHHGSEVSQNDIIKALASPLINDGMVVSDFADHVITREQNAPTGLPVEPVGVAIPHTDSKYVRQNAISVGILAEPVNFEDAGGEPDPVPVRVVFMLALGNWFDITNVLWWIMDVIQDADFMQQLLVMNDDEIYQSIYTRISEAAGMAGIHFRRHYVRHLPLEHHHHHH
In the experiment with 10E8 antibody [7], B14 returned a factor weaker than the corresponding 10E8 scaffold of 30 fold. In the experiment with 10E8 antibody [6], this molecule came in with a Kd of 3 nM.
